Legend:
IL-36R (20-220)-His6-Avi = IL-36R (20-220)-His6-Avi (human, UniProt Q9HB29, biotin on the Avi tag (in vitro, BirA)); experiment: crystal structure
[1] = patients who had received at least one dose; cited from earlier work
IL-36R (20-333)-His6-Avi = molecular target: T1, IL-36R (20-333)-His6-Avi (human, UniProt Q9HB29 20-333, biotin on the Avi tag (in vitro, BirA)); experiment: SPR
T1 sequence (looked up): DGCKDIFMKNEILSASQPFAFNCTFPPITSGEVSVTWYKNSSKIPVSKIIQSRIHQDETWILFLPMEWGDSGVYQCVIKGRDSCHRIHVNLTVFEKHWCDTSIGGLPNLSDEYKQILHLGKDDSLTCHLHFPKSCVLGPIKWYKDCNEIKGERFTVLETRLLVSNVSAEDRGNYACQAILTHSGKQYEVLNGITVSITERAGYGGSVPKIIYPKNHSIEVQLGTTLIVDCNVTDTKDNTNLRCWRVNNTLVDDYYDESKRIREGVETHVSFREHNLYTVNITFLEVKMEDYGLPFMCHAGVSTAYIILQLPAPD

B1: spesolimab-Fab (Fab, V domains shown)
VH: QVQLVQSGAEVKKPGASVKVSCKASGYSFTSSWIHWVKQAPGQGLEWMGEINPGNVRTNYNENFRNKVTMTVDTSISTAYMELSRLRSDDTAVYYCTVVFYGEPYFPYWGQGTLVTVSS
VL: QIVLTQSPGTLSLSPGERATMTCTASSSVSSSYFHWYQQKPGQAPRLWIYRTSRLASGVPDRFSGSGSGTDFTLTISRLEPEDAATYYCHQFHRSPLTFGAGTKLEIK
- binding result (IL-36R (20-220)-His6-Avi): binds

B2: spesolimab: IL-36R blocking antibody, positive control; approved for flares of GPP (antibody, chains of the INN, looked up, V domains shown)
VH: QVQLVQSGAEVKKPGASVKVSCKASGYSFTSSWIHWVKQAPGQGLEWMGEINPGNVRTNYNENFRNKVTMTVDTSISTAYMELSRLRSDDTAVYYCTVVFYGEPYFPYWGQGTLVTVSS
VL: QIVLTQSPGTLSLSPGERATMTCTASSSVSSSYFHWYQQKPGQAPRLWIYRTSRLASGVPDRFSGSGSGTDFTLTISRLEPEDAATYYCHQFHRSPLTFGAGTKLEIK
- anti-drug antibodies observed, patients [1]: 23 out of 50

B3: Human IL-36α (aa 6–158) (ligand, UniProt Q9UHA7 6-158, looked up)
chain: KIDTPQQGSIQDINHRVWVLQDQTLIAVPRKDRMSPVTIALISCRHVETLEKDRGNPIYLGLNGLNLCLMCAKVGDQPTLQLKEKDIMDLYNQPEPVKSFLFYHSQSGRNSTFESVAFPGWFIAVSSEGGCPLILTQELGKANTTDFGLTMLF
- Kd (IL-36R (20-333)-His6-Avi): ~600 nM

Source: article PMC11829961 (Nature Communications, 2025)
